Experiment [1] concerns NIH 3T3-L1 preadipocyte cell lines. Description: Adipocyte differentiation assay, Oil Red O staining of triacylglycerol. The format is cell-based. The following applies: muristerone-induced expression alone, no differentiation agents, 10 days. As for the experimental part:
Differentiation assays were performed on cells growing on 8 chamber microscope slides. […] The cells were treated with a differentiation mixture, muristerone, or both. […] Muristerone was added to medium at a final concentration of 10 uM for the entire 10 day differentiation period. After 10 days in culture, the cells were stained with Oil Red 0 to visualize triacylglycerol vesicles as previously described (Klemm et al., 1998, J. Biol. Chem., 273:917-923), and counterstained with hematoxylin to visualize cell morphology. Cells were observed by brightfield microscopy and representative fields, were photographed.

For experiment [2], the system named is PPARγ2 and FABP expression in 3T3-L1 cell lines. Description: Expression of adipocyte-specific markers PPARγ2 (Western) and FABP (RNA blot). It counts as cell-based. Conditions: muristerone-treated VP16-CREB cell lines, absence of other differentiation-stimulating agents. As for the experimental part: In this experiment, control, VP16-CREB and KCREB expressing cells lines were grown and treated as above. On days 0 and 10 of the experiment, whole cell lysates and total RNA were prepared from duplicate wells of cells. Approximately 25 ug of protein in the cell lysates (lysed directly on multiwell slides in SDS gel loading buffer) was separated on 10% polyacrylamide-SDS gels and transferred to nitrocellulose blots. The blots were probed with a polyclonal antibody to PPARγ2, and the specific PPARγ2 band is indicated by an * in the top row of blots (FIG. 3).
Similarly, 10 ug of total RNA was separated on 1% denaturing (formaldehyde) agarose gels run at 5 V/cm until the Bromophenol Blue tracking dye had migrated half the length of the gel. The gels were soaked in several changes of distilled water, overnight at 4° C., and stained with ethidium bromide and briefly examined in ultraviolet light to insure RNA integrity and equivalent RNA amounts in each lane. The gels were destained in several changes of 5× sodium chloride/sodium citrate (SSC) buffer. RNA was transferred onto nitrocellulose membranes. The resulting blots were heated to 80° C. under vacuum for two hours. The membranes were blocked for 30 minutes at 70° C., and then a biotin-labeled FABP-specific oligonucleotide probe (250 fg/ml) was added for an additional 30 min. […]

For experiment [3], the system named is CREluc reporter in HEK cells. As to the kind of experiment: CREluc reporter in HEK cells transfected with CREB constructs. The format is cell-based. The following applies: transient transfection of adenoviral expression plasmids. From the text: CDNA for KCREB, CREB DIEDML and VP16CREB were cloned into adenoviral expression vectors as described previously herein. The plasmids were transiently transfected into HEK cells to assess their impact upon a cotransfected CREluc reporter construct. […] Transfected cells were also lysed and CREB protein content and Flag content assayed Western analysis. All proteins were highly expressed in HEK cells (data not shown).

Experiment [4] has as its system PEPCK gene promoter in NIH 3T3-L1 clonal cell lines. Description: Truncated CRE-containing PEPCK promoter luciferase reporter (-109 pPC-Luc) in 3T3-L1 clones. It counts as cell-based. The following applies: VP16-CREB clones 2-4 and 9-7; muristerone; versus untreated cells. As for the experimental part: To test the ability of KCREB and VP16-CREB expression to influence gene transcription, a plasmid containing a truncated, CRE-containing portion of the phosphoenolpyruvate carboxykinase (PEPCK) gene promoter linked to a luciferase reporter gene (−109 pPC-Luc) was transfected into each of the clones. […] Four hours later cell lysates were prepared and luciferase activity measured as an index of transcriptional activity. Levels are shown relative to levels of luciferase activity in untreated, control cells (No Add'n).
For orientation: Reporter assays use an easily measured gene product as a stand-in for the process of interest.

Experiment [5] concerns PEPCK, FABP and FAS gene promoters in 3T3-L1 fibroblasts. Description: Full length PEPCK, FABP and FAS promoter luciferase reporters in 3T3-L1 fibroblasts. The format is cell-based. Conditions: relative to untreated cells. On the procedure: Control, VP16-CREB or KCREB inducibly expressing 3T3-L1 fibroblasts were transfected with plasmids containing the full length promoters of the PEPCK, FABP or FAS genes linked to luciferase. The cells were cotransfected with the internal control plasmid, pRSV-pGal. […] Cell lysates were then prepared, and luciferase activity measured as an index of transcriptional activity. Levels of transcription are shown relative to levels measured in untreated cells for each promoter tested, and were corrected for transfection efficiency.

For a further experiment, the system named is BASMC. As to the kind of experiment: Transient VP16CREB transfection in BASMC, phenotype. The format is cell-based, bovine. Conditions: preliminary transient transfections. From the text:
It is expected that dominant negative CREB and sense ICER will lead to SMC phenotypic modulation. If the dose delivered overwhelms the cells, apoptosis may occur. Assays to confirm or deny the induction of apoptosis are readily available in the lab in conjunction with the neurodegeneration REAP. Overexpression of WT CREB is likely to promote a differentiated phenotype. The present inventors have already provided data above showing arrest of cell cycle and decreased migration with CREB overexpression. The constitutively active CREB could induce ICER and promote dedifferentiation, promote proliferation by driving immediate early genes, or maintain the mature phenotype. Adenoviral overexpression of constitutively active signaling elements can lead to non-physiological protein interactions. […] The dominant negative CREB and ICER overexpression experiments will be the most informative for the question of how CREB down-regulation impacts phenotype.

The subject of a further experiment is 3T3-L1 cells. As to the kind of experiment: 3T3-L1 cell proliferation (Cell-Titer 96 Aq). It counts as cell-based. The following applies: muristerone-treated versus control clones, 72 hours. On the procedure: 3T3-L1 fibroblasts were passaged and treated with differentiation-inducing agents as previously described (Klemm et al., 1998, J. Biol. Chem., 273:917-923), incorporated herein by reference in its entirety. Plates of 3T3-L1 fibroblasts and adipocytes were grown to 70-80% confluency and transfected with the above-described plasmids with Superfect Reagent (Oiagen, Valencia, Calif.) according to the manufacturer's recommendations. Cells stably transfected with the plasmid, pVgRXR were selected for in conventional medium containing 500 ug/mi Zeocin, and cells stably transfected with pIND-VP16-CREB, pIND-KCREB or pIND-LacZ plasmids were selected for in medium containing 500 ug/ml Geneticin. Large, rapidly growing, well separated colonies were isolated 10 to 12 days after selection was begun with either antibiotic. […] The effect of VP16-CREB and KCREB expression on 3T3-L1 proliferation was assessed by measuring cell number with the Cell-Titer 96 Aq reagent system (Promega Corp., Madison, Wis.).
Two possible mechanisms by which CREB could potentiate adipose differentiation would be by increasing cell proliferation related to clonal expansion, or by inhibiting cell growth as a prelude to terminal differentiation. To examine these possibilities, changes in the rate of cell growth in control versus muristerone-treated VP16-CREB and KCREB expressing clones was measured.

B1: VP16-CREB: constitutively active fusion protein: VP16 transactivation domain (aa 412-490) linked to CREB DNA binding domain (aa 217-327), SEQ ID NO:6 (protein, listed as Homo sapiens)
chain: MAPKKKRKVPGVPSSNCIDTAPPTDVSLGDELHLDGEDVAMAHADAHDDFDLDMLGDGDSPGPGFTPHDSAPYGALDMADFEFEQMFTDALGIDEYGGIDWILVPSNQVVVQAASGDVQTYQIRTAPTSTIAPGVVMASSPALPTQPAEEAARKREVRLMKNREAARECRRKKKEYVKCLENRVAVLENQNKTLIEELKALKDLYCHKSZ
With B1, in experiment [1], the “triacylglycerol accumulation and cell morphology (Oil Red O)” value was “sufficient to induce triacylglycerol accumulation and rounded cell morphology”. Besides, the “PPARγ2 and FABP expression, day 10” value in experiment [2] is given as “easily detected”. Besides, in experiment [3], the “CREluc reporter luciferase expression” value was “strongly drive the reporter”. Further, the “luciferase production from the PEPCK promoter fragment, stimulation” value in experiment [4] is recorded as 3.5 to 4 fold. In experiment [5], the “transcription (luciferase) from full-length PEPCK, FABP and FAS promoters” value was “stimulated”. The SMC phenotype result in the experiment with BASMC is given as “phenotypic changes consistent with increased differentiation”. Moreover, the “rate of cell proliferation” value in the experiment with 3T3-L1 cells is given as “No significant differences in the rate of cell proliferation”.

(Values after patent US20040097454A1, “Method for modulation of cell phenotype” (University Technology Corporation, priority 1999, published 2004).)
